For 4 molecules, binding result and O.D. results are on record in patent US20200299373A1 (NEURACLE SCIENCE, published 2020).

Where no end group is shown, it is not given here.

Assay [1] deals with T1, FAM19A5 epitope fragment F2 conjugated to BSA (human, conjugated to BSA).
T1 peptide: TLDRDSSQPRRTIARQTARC
In words: ELISA on peptide-BSA coated on the plate. The procedure: (§1) Overlapping peptide fragments (F1-F6, See FIG. 1) of the human FAM19A5 protein were synthesized and conjugated to BSA. Binding of the different anti-FAM19A5 antibodies to the BSA-conjugated peptide fragments F1-F6 was determined by ELISA assay. Briefly, FAM19A5 fragment F1-F6 (diluted to 1 μg/mL in 50 mM carbonate buffer (Biosesang) or to 20 μg/mL for high concentration analysis) were used to coat the wells of 96-well immuno plates (Thermo Scientific) (100 μL/well) overnight at 4° C. and then subsequently washed twice in 1×PBS. The plates were then blocked with the blocking buffer (100 μL/well) for 1 hour at room temperature. During the 1-hour incubation, the relevant anti-FAM19A5 antibodies were diluted to 1 μg/mL (or 20 μg/mL for high concentration analysis) in the diluent buffer. Once the plates were washed (2× using 1×PBS), the diluted anti-FAM19A5 antibodies were added to the appropriate wells, and the plates were incubated at room temperature for 1 hour. The plates were subsequently washed for a total of five times using the washing buffer. Next, the ODP substrate (prepared by dissolving one ODP tablet (0-phenylenediamine Dihydrochloride, Thermo) into 9 mL of sterilized deionized water and 1 mL of 10× stable Peroxide Stable buffer (Theromo)) was added to each of the wells, and the color change reaction was allowed to occur for 10 minutes. This reaction was stopped by adding 100 μL of 2N H2SO4 (Daejung) to the wells. The absorption value of each of the wells was detected at 492 nm using a 96-well microplate reader (Molecular Device).
For orientation: An ELISA detects its analyte on a solid surface through an enzyme-linked reagent.

For assay [2], the target named is T2, FAM19A5 epitope fragment F6 conjugated to BSA (human, conjugated to BSA).
T2 peptide: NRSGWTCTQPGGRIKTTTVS
As to the kind of experiment: ELISA on peptide-BSA coated on the plate. The procedure:
as §1

In assay [3] the target is T3, FAM19A5 epitope fragment F4 conjugated to BSA (human, conjugated to BSA).
T3 peptide: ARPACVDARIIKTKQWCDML
In words: ELISA on peptide-BSA coated on the plate. The procedure: as §1

For assay [4], the target named is T4, FAM19A5 epitope fragment F3 conjugated to BSA (human, conjugated to BSA).
T4 peptide: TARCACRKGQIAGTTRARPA
In words: ELISA on peptide-BSA coated on the plate. The procedure:
as §1

The target of assay [5] is T5, FAM19A5 epitope fragment F1 conjugated to BSA (human, also: conjugated to BSA).
T5 peptide: QLAAGTCEIVTLDR
As to the kind of experiment: ELISA on peptide-BSA coated on the plate. The procedure: as §1

In assay [6] the target is T6, FAM19A5 mutant M4 (human).
T6 construct: Expressed on phage; Region EP4 is replaced with the FAM19A1-4 consensus
T6 chain: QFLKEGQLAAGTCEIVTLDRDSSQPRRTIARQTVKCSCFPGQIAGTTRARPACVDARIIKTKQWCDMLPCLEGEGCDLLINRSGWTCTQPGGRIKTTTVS
In words: ELISA with phage-displayed FAM19A5 mutants.

For assay [7], the target named is T7, FAM19A5 mutant M2 (human).
T7 construct: Expressed on phage; It has substitutions at amino acid residues 21-25 (EP2)
T7 chain: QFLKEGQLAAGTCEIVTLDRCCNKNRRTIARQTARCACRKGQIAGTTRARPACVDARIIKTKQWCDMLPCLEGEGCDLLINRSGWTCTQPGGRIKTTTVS
In words: ELISA with phage-displayed FAM19A5 mutants.

Assay [8] has as its target T8, FAM19A5 mutant M3 (human).
T8 construct: Expressed on phage; Region EP3 is replaced with the FAM19A1-4 consensus
T8 chain: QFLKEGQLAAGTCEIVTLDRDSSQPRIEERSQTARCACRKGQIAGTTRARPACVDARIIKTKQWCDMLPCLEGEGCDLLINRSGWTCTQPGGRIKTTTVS
As to the kind of experiment: ELISA with phage-displayed FAM19A5 mutants.

For assay [9], the target named is T9, FAM19A5 mutant M1 (human).
T9 construct: Region EP1 is replaced with the FAM19A1-4 consensus; The fusion to the phage protein is not described
T9 chain: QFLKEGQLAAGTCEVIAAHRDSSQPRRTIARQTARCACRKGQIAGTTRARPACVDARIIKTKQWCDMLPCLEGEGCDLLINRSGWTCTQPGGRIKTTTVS
As to the kind of experiment: ELISA with phage-displayed FAM19A5 mutants.

Assay [10] deals with T10, FAM19A5 mutant M6 (human).
T10 construct: Expressed on phage; Region EP6 is replaced with the FAM19A1-4 consensus
T10 chain: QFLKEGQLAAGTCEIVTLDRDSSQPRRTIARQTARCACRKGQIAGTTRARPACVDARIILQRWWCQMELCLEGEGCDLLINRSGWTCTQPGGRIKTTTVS
As to the kind of experiment: ELISA with phage-displayed FAM19A5 mutants.

For assay [11], the target named is T11, FAM19A5 mutant M7 (human).
T11 construct: Expressed on phage; Region EP7 is replaced with the FAM19A1-4 consensus
T11 chain: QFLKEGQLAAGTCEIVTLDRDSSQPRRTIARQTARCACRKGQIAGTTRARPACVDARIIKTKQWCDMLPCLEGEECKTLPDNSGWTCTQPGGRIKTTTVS
As to the kind of experiment: ELISA with phage-displayed FAM19A5 mutants.

Assay [12] concerns the target T12, FAM19A5 mutant M8 (human).
T12 construct: Expressed on phage; Region EP8 is replaced with the FAM19A1-4 consensus
T12 chain: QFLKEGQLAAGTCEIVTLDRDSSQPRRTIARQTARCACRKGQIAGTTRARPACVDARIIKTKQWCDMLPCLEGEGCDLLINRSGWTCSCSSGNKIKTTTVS
In words: ELISA with phage-displayed FAM19A5 mutants.

Assay [13] deals with T1, FAM19A5 epitope fragment F2 conjugated …. As to the kind of experiment: ELISA, antigen coated on the plate, antibody in solution, absorbance at 492 nm. The procedure: as §1
Assay [14] concerns the target T13, FAM19A5 epitope fragment F5 conjugated to BSA (human, conjugated to BSA).
T13 peptide: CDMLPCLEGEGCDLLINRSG
The assay is described as above. The procedure:
as §1

In assay [15] the target is T2, FAM19A5 epitope fragment F6 conjugated …. Described as above. On the procedure: as §1
In assay [16] the target is T3, FAM19A5 epitope fragment F4 conjugated …. Described as above. The procedure: as §1
Assay [17] addresses T4, FAM19A5 epitope fragment F3 conjugated …. Described as above. On the procedure:
as §1

The target in assay [18] is T5, FAM19A5 epitope fragment F1 conjugated …. The assay is described as above. The procedure: as §1
Assay [19] addresses T13, FAM19A5 epitope fragment F5 conjugated …. As to the kind of experiment: ELISA on peptide-BSA coated on the plate. On the procedure:
as §1

Assay [20] has as its target T1, FAM19A5 epitope fragment F2 conjugated …. In words: ELISA on coated BSA-conjugated peptide. The procedure: as §1, with “Next, the ODP substrate (prepared by dissolving one ODP tablet (0-phenylenediamine Dihydrochloride, Thermo) into 9 mL of sterilized deionized water and 1 mL of 10× stable Peroxide Stable buffer (Theromo)) was added to each of the wells, and the color change reaction was allowed to occur for 10 minutes. This reaction was stopped by adding 100 μL of 2N H2SO4 (Daejung) to the wells.” left out

B1: anti-FAM19A5 antibody 1-65 (antibody, V domains shown)
VH: AVTLDESGGGLQTPGGALSLVCKASGFTFSSYQMGWVRQAPGKGLEWVGVINKSGSDTSYGSAVKGRATISRDNGQSTVRLQLNNLRAEDTGTYFCAKGSASYITAATIDAWGHGTEVIVSS
VL: ALTQPSSVSANPGETVKITCSGGGSSGYGYGWYQQKSPSSAPLTVIYWNDKRPSDIPSRFSGSKSGSTHTLTITGVQAEDEAVYFCGNDDYSSDSGYVGVFGAGTTLTVL
For the molecule B1, the binding result in assay [1] is “no binding”; in assay [2], “no binding”; in [3] it was “no binding”; in assay [4], “no binding”; in assay [5], “no binding”; in [6], “binds”. In addition, the binding result is “binds” in assay [7]; “binds” in assay [8]; “binds” in assay [9]; “no binding” in assay [10]; “no binding” in assay [11]; “no binding” in [12]. In addition, the O.D. in [13] worked out at 0.06; in [14], 1.5; in assay [15], 0.05; in assay [16], 0.06; in assay [17] it was 0.06; in [18] it was 0.06.

B2: anti-FAM19A5 antibody 2-13 (antibody, V domains shown)
VH: AVTLDESGGGLQTPGGALSLVCKASGFTFSSHGMFWVRQTPGKGLEYVAEITNDGSGTNYGSAVKGRATISRDNGQSTVRLQLNNLRAEDTGTYFCARSTYECPGGFSCWGDTGQIDAWGHGTEVIVSS
VL: ALTQPSSVSANPGETVKITCSGGSYSYGWFQQKSPGSALVTVIYWDDERPSDIPSRFSGALSGSTNTLTITGVQADDEAVYFCGTEDISGTAGVFGAGTTLTVL
notes: Chicken-derived scFv clone; also called Anti-FAM19A5 ("2-13")
Consider B2, for which the binding result in assay [1], in assay [19], in [2], in assay [3], in [4] and in assay [5] was “no binding” throughout. The binding result was “no binding” in [6]; “binds” in assay [7]; “binds” in [8]; “binds” in [9]; “binds” in assay [10]; “binds” in assay [11]. Further, in assay [12], the binding result is on record as “no binding”. The O.D. in assay [13] was found to be 0.06; in [14] it was 0.05; in assay [15], 0.06; in assay [16], 0.05; in assay [17] it was 0.06; in assay [18] it was 0.06.

B3: anti-FAM19A5 antibody 3-2 (antibody, V domains shown)
VH: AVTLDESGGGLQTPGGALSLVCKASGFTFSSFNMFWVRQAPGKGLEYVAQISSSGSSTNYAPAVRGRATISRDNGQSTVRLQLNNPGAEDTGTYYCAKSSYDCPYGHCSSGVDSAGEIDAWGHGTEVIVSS
VL: ALTQPSSVSANPGETVKITCSGGGSYAGSYYYGWYQQKAPGSAPVTLIYESNKRPSDIPSRFSGSTSGSTATLTITGVQADDEAIYYCGSWDSSNGGIFGAGTTLTVL
notes: The text reports one result for both formats, so one molecule is written here; also called h3-2; m3-2
As to B3, the binding result is recorded as “binds” in [6]; “no binding” in assay [7]; “binds” in assay [8]; “binds” in [9]; “binds” in [10]; “binds” in [11]. The binding result in [12] is given as “binds”. In addition, the O.D. in assay [13] is 3.3.

B4: anti-FAM19A5 antibody 1-28 (antibody, V domains shown)
VH: AVTLDESGGGLQTPGGALSLVCKASGFDFSDYGMGWVRQAPGKGLEWVAAIRSDGSNPSYGSAVKGRATISKDNGRSTVRLQLNNLRAEDTATYYCAKDGNGYCALDAYRSGGYSCGVYPGSIDAWGHGTEVIVSS
VL: ALTQPSSVSANLEGTVEITCSGSGYGYGWYQQKSPGSAPVTVIYQNDKRPSDIPSRFSGSKSGSTGTLTITGVQVEDEAVYYCGSEDSSTLAGIFGAGTTLTVL
notes: Chicken-derived scFv clone; also called Anti-FAM19A5 ("1-28")
On to B4, for which the binding result was “binds” in assay [6]; “no binding” in [7]; “binds” in assay [8]; “binds” in assay [9]; “binds” in assay [10]; “binds” in [11]. For the same molecule, the binding result in assay [12] and in [20] was “binds” in each case.
